Experimental data reported in patent publication US20030092616A1, “STAT6 activation gene” (priority 2001, published 2003).

B1: 26 (nucleic acid, listed as Homo sapiens)
chain: AGCCAAGGAGCAATAACTGAACGTTTAAGAAGCTTCAGTATGCATGATTTAACAACTATCCAAGGTGATGAGCCTGTGGGACAAAGACCATACCAACCTCTACCAGAAGCAAAAAAGAAAAGTAAACCAGCCCCCAGTGAATCAGCAGGTTATGGAATTCCACTGAAAGACGGAGATGAGAAAACAGATGAAGAAGCAGAGGGGCCATATTCAGATAATGAGATGTTAACACACAAAGGGCTTCGAAGATCGCAAAGCATGAAATCTGTGAAAACCACCAAAGGCCGCAAAGAGGTGCGGTACGGGTCACTAAAATACAAAGTGAAGAAACGACCACAAGTGTATTTTTAGTCATCTACACGTCAAATATCCCAAGACAGATTATGCTAAATACATCGACTTCATCTTCTAACATGATATATTCAGGATTTACACATTAAAATGATTATTT
modifications: CDS (40)..(348)
B2: 217 (nucleic acid, listed as Homo sapiens)
chain: AAGCAATGCGCAGCAGCCAGATCTGTCCAAAGCAGTTTCACTCTCAATGGGACTGTATATGGGAGAGACAGAAACAAAAGTGATGGGAAATGACCTGGGATTCCCACAGCAGGGCCAAATCAGCCTTTCCTCGGGGGAAACAGACTTAAAGCTTTTGGAAGAAAGCATTGCAAACCTCAATAGGTCGACCAGTGTTCCAGAGAACCCCAAGAGTTCAGCATCCACTGCTGTGTCTGCTGCCCCCACAGAGAAGGAGTTTCCAAAAACTCACTCTGATGTATCTTCAGAACAGCAACATTTGAAGGGCCAGACTGGCACCAACGGTGGCAATGTGAAATTGTATACCACAGACCAAAGCACCTTTGACATTTTGCAGGATTTGGAGTTTTCTTCTGGGTCCCCAGGTAAAGAGACGAATGAGAGTCCTTGGAGATCAGACCTGTTGATAGATGAAAACTGTTTGCTTTCTCCTCTGGCGGGAGAAGACGATTCATTCCTTTTGGAAGGAAACTCGAATGAGGACTGCAAGCCTCTCATTTTACCGGACACTAAACCCAAAATTAAGGATAATGGAGATCTGGTTTTGTCAAGCCCCAGTAATGTAACACTGCCCCAAGTGAAAACAGAAAAAGAAGATTTCATCGAACTCTGCACCCCTGGGGTAATTAAGCAAGAGAAACTGGGCACAGTTTACTGTCAGGCAAGCTTTCCTGGAGCAAATATAATTGGTAATAAAATGTCTGCCATTTCTGTTCATGGTGTGAGTACCTCTGGAGGACAGATGTACCACTATGACATGAATACAGCATCCCTTTCTCAACAGCAGGATCAGAAGCCTATTTTTAATGTCATTCCACCAATTCCCGTTGGTTCCGAAAATTGGAATAGGTGCCAAGGATCTGGAGATGACAACTTGACTTCTCTGGGGACTCTGAACTTCCCTGGTCGAACAGTTTTTTCTAATGGCTATTCAAGCCCCAGCATGAGACCAGATGTAAGCCCTCCTCCATCCAGCTCCTCAACAGCAACAACAGGACCACCTCCCAAACTCTGCCTGGTGTGCTCTGATGAAGCTTCAGGATGTTATTATGGAGTCTTAACTTGTGGAAGCTGTAAAGTTTTCTTCAAAAGAGCAGTGGAAGGACAGCACAATTACCTATGTGCTGGAAGGAATGATTGCATCATCGATAAAATTCGAAGAAAAAACTGCCCAGCATGCCGCTATCGAAAATGTCTTCAGGCTGGAATGAACCTGGAAGCTCG
modifications: CDS (47)..(1261)
B3: 219 (nucleic acid, listed as Homo sapiens)
chain: GTATACCACAGACCAAAGCACCTTTGACATTTTGCAGGATTTGGAGTTTTCTTCTGGGTCCCCAGGTAAAGAGACGAATGAGAGTCCTTGGAGATCAGACCTGTTGATAGATGAAAACTGTTTGCTTTCTCCTCTGGCGGGAGAAGACGATTCATTCCTTTTGGAAGGAAACTCGAATGAGGACTGCAAGCCTCTCATTTTACCGGACACTAAACCCAAAATTAAGGATAATGGAGATCTGGTTTTGTCAAGCCCCAGTAATGTAACACTGCCCCAAGTGAAAACAGAAAAAGAAGATTTCATCGAACTCTGCACCCCTGGGGTAATTAAGCAAGAGAAACTGGGCACAGTTTACTGTCAGGCAAGCTTTCCTGGAGCAAATATAATTGGTAATAAAATGTCTGCCATTTCTGTTCATGGTGTGAGTACCTCTGGAGGACAGATGTACCACTATGACATGAATACAGCATCCCTTTCTCAACAGCAGGATCAGAAGCCTATTTTTAATGTCATTCCACCAATTCCCGTTGGTTCCGAAAATTGGAATAGGTGCCAAGGATCTGGAGATGACAACTTGACTTCTCTGGGGACTCTGAACTTCCCTGGTCGAACAGTTTTTTCTAATGGCTATTCAAGCCCCAGCATGAGACCAGATGTAAGCTCTCCTCCATCCAGCTCCTCAACAGCAACAACAGGACCACCTCCCAAACTCTGCCTGGTGTGCTCTGATGAAGCTTCAGGATGTCATTATGGAGTCTTAACTTGTGGAAGCTGTAAAGTTTTCTTCAAAAGAGCAGTGGAAGGACAGCACAATTACCTATGTGCTGGAAGGAATGATTGCATCATCGATAAAATTCGAAGAAAAAACTGCCCAGCATGCCGCTATCGAAAATGTCTTCAGGCTGGAATGAACCTGGAAGCTCGAAAAAC
modifications: CDS (398)..(928)
B4: 237 (nucleic acid, listed as Homo sapiens)
chain: TGCGCGTGCGCAGGGATAAGAGAGCGGTCTGGACAGCGCGTGGCCGGCGCCGCTGTGGGGACAGCATGAGCGGCGGTTGGATGGCGCAGGTTGGAGCGTGGCGAACAGGGGCTCTGGGCCTGGCGCTGCTGCTGCTGCTCGGCCTCGGACTAGGCCTGGAGGCCGCCGCGAGCCCGCTTTCCACCCCGACCTCTGCCCAGGCCGCAGGCCCCAGCTCAGGCTCGTGCCCACCCACCAAGTTCCAGTGCCGCACCAGTGGCTTATGCGTGCCCCTCACCTGGCGCTGCGACAGGGACTTGGACTGCAGCGATGGCAGCGATGAGGAGGAGTGCAGGATTGAGCCATGTACCCAGAAAGGGCAATGCCCACCGCCCCCTGGCCTCCCCTGCCCCTGCACCGGCGTCAGTGACTGCTCTGGGGGAACTGACAAGAAACTGCGCAACTGCAGCCGCCTGGCCTGCCTAGCAGGCGAGCTCCGTTGCACGCTGAGCGATGACTGCATTCCACTCACGTGGCGCTGCGACGGCCACCCAGACTGTCCCGACTCCAGCGACGAGCTCGGCTGTGGAACCAATGAGATCCTCCCGGAAGGGGATGCCACAACCATGGGGCCCCCTGTGACCCTGGAGAGTGTCACCTCTCTCAGGAATGCCACAACCATGGGGCCCCCTGTGACCCTGGAGAGTGTCCCCTCTGTCGGGAATGCCACATCCTCCTCTGCCGGAGACCAGTCTGGAAGCCCAACTGCCTATGGGGTTATTGCAGCTGCTGCGGTGCTCAGTGCAAGCCTGGTCACCGCCACCCTCCTCCTTTTGTCCTGGCTCCGAGCCCAGGAGCGCCTCCGCCCACTGGGGTTACTGGTGGCCATGAAGGAGTCCCTGCTGCTGTCAGAACAGAAGACCTCGCTGCCCTGAGGACAAGCACTTGCCACCACCGTCACTCAGCCCTGGGCGTAGCCGGACAGGAGGAGAGCAGTGATGCGGATGGGTACCCGGGCACACCAGCCCTCAGAGACCTGAGCTCTTCTGGCCACGTGGAACCTCGAACCCGAGCTCCTGCAGAAGTGGCCCTGGAGATTGAGGGTCCCTGGACACTCCCTATGGAGATCCGGGGAGCTAGGATGGGGAACCTGCCACAGCCAGAACTGAGGGGCTGGCCCCAGGCAGCTCCCAGGGGGTAGAACGGCCCTGTGCTTAAGACACTCCTGCTGCCCCGTCTGAGGGTGGCGATTAAAGTTGCT
modifications: CDS (66)..(911)

Tested on: STAT6
Assay: Screening of full-length cDNA clones for promotion of STAT6 activation (luciferase reporter N4×8-luc)
Type: cell-based
Conditions: NIH3T3 cells cotransfected with N4×8-luc reporter and cDNA plasmid; 48 h culture, then mouse IL-4 0.5 ng/ml for 6 h
Experimental: As a preferable method, NIH3T3 cells are inoculated on 10% FBS (Fetal Bovine Serum)-containing IMDM medium in a 96-well cell culture plate to a final cell density of 1×10^4 cells/well, and cultured for 24 hours at 37° C., in the presence of 5% CO2. Then, the luciferase reporter plasmid N4×8-luc which has a STAT6 response sequence, and the expression vector are cotransfected into the cells in a well using FuGENE 6 (Roche). After 48 hours of culture at 37° C., in the presence of 5% CO2 mouse IL-4 (Immuno Biological Laboratories Co., Ltd.) is added to a final concentration of 0.5 ng/ml. After culturing for further 6 hours, promoting activity for STAT6 activation is then measured by measuring luciferase activity using a long term luciferase assay system, Picagene LT2.0 (Toyo Ink Mfg). For example, luciferase activity can be measured using PerkinElmer's Wallac ARVOTMST 1420 MULTILABEL COUNTER. The method for gene introduction by FuGENE6, and measurement of luciferase activity by Picagene LT2.0 can be performed respectively according to the attached protocols. In a method of gene introduction with a 96-well plate using FuGENE6, the amount of FuGENE6 per 1 well is suitably 0.3 to 0.5 μl, preferably 0.3 μl; the amount of N4×8-luc reporter plasmid is suitably 50 to 100 ng, preferably 100 ng; and the amount of expression vector is suitably 50 to 100 ng, preferably 100 ng. An ability (action) to promote STAT6 activation refers to an ability to increase the reporter activity (luciferase activity) relative to the control experiment (for cells into which the reporter gene and a null vector were introduced). Increase in reporter activity is preferably by a factor of 1.5 or more, more preferably by a factor of 3 or more, and still more preferably by a factor of 6 or more.
NIH3T3 cells (purchased from Dainippon Pharmaceutical) were grown to 1×10^4 cells/well in a 96 well plate for cell culture for 24 hours at 37° C. (in the presence of 5% CO2) using 10% FBS containing IMDM medium. Then, 100 ng of luciferase reporter plasmid N4×8-luc having a STAT6 response sequence and 2 μl of the full-length cDNA prepared in above Example 1.(3) were cotransfected into the cells in a well using FuGENE 6 (purchased from Roche) according to the manufacturer's protocol. The luciferase reporter plasmid N4×8-luc having the STAT6 response sequence was constructed as follows. […] 157, 2058-2065 (1996)], oligonucleotides having the following sequences were synthesized:
The synthesized oligonucleotides were dissolved in sterile water to be 1μg/μl, respectively, mixed in 10 μl lots, and adjusted the volume to 32 μl with sterile water. The solution was heated for 5 min at 90° C., and gradually cooled down to room temperature to prepare a double-stranded oligonucleotide solution. The solution was reacted with T4 polynucleotide kinase (Takara Shuzo) according to the attached manual, then the reaction product was purified in a usual manner. Separately, SV40 promoter region of pGL3-Promoter vector (Promega) was replaced by the HSV thymidine kinase promoter sequence (from −50 to +10) with Hind III site and BglII site to construct a vector tk-luc. The aforesaid double-stranded oligonucleotide fragments were inserted into the XhoI site of this tk-luc vector using T4 DNA ligase (GIBCO/BRL). The obtained clones were sequenced according to a usual method, and clones in which plural oligonucleotide fragments were inserted were selected. […] The four-interlinked DNA fragments were excised from the N4×4-luc with a XhoI and a BglII site and purified to be inserted into a BamHI and a XhoI site of pBluescript II KS+ (Stratagene). The four-interlinked DNA fragments were excised from this plasmid with KpnI and SpeI and inserted into a KpnI and a NheI site of N4×4-luc plasmid to finally obtain N4×8-luc.

**Q.** For B1, which “Activity = (luciferase activity of the gene of each SEQ ID NO:)/(luciferase activity of pME18S-FL3)” value is on record?
**A.** 33.5

**Q.** B2 was tested. Which “Activity = (luciferase activity of the gene of each SEQ ID NO:)/(luciferase activity of pME18S-FL3)” value did it give?
**A.** 1521.5

**Q.** How did the “Activity = (luciferase activity of the gene of each SEQ ID NO:)/(luciferase activity of pME18S-FL3)” value turn out when B3 was run?
**A.** 12.7

**Q.** With B4 as the molecule, how does the “Activity = (luciferase activity of the gene of each SEQ ID NO:)/(luciferase activity of pME18S-FL3)” value read?
**A.** 105.1
